In patent US6365711 (Harvard, dated 2002):

Molecular target: T1, Myc-tagged Δ473-534 (Xenopus, UniProt P70056 61-472)
T1 construct: also called deletion of an additional 33 C-terminal amino acids
T1 sequence: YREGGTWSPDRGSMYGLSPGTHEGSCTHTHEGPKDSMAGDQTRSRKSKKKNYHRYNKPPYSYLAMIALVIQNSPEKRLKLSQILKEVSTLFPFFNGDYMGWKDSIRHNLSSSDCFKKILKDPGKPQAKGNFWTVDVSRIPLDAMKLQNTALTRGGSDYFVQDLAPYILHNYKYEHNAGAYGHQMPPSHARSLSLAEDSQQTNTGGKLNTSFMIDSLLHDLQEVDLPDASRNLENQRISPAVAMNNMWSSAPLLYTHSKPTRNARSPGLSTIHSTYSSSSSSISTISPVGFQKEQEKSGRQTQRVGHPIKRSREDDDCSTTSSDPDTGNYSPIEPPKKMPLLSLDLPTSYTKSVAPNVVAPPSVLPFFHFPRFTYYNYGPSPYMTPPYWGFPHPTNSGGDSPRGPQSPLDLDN
Assay: FAST-1 deletion mutant co-expressed with tagged Smad in Xenopus embryos

binding result: no binding
B1: Myc-tagged Smad2 (other, not shown: small tags and cut ends)
chain: MSSILPFTPPVVKRLLGWKKSASGTTGAGGDEQNGQEEKWCEKAVKSLVKKLKKTGQLDELEKAITTQNCNTKCVTIPSTCSEIWGLSTANTIDQWDTTGLYSFSEQTRSLDGRLQVSHRKGLPHVIYCRLWRWPDLHSHHELKAIENCEYAFNLKKDEVCVNPYHYQRVETPVLPPVLVPRHTEILTELPPLDDYTHSIPENTNFPAGIEPQSNYIPETPPPGYISEDGETSDQQLNQSMDTGSPAELSPSTLSPVNHNLDLQPVTYSEPAFWCSIAYYELNQRVGETFHASQPSLTVDGFTDPSNSERFCLGLLSNVNRNATVEMTRRHIGRGVRLYYIGGEVFAECLSDSAIFVQSPNCNQRYGWHPATVCKIPPGCNLKIFNNQEFAALLAQSVNQGFEAVYQLTRMCTIRMSFVKGWGAEYRRQTVTSTPCWIELHLNGPLQWLDKVLTQMGSPSVRCSSMS
notes: Expressed from injected RNA in Xenopus embryos; also called Myc-Smad2
